Assay: yeast display, Sf9 membrane polyspecificity reagent, FACS + sequencing; frameworks hold sequencing errors
How it was run: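 Using colony PCR, genes from sorted yeast display clones were amplified, then sequenced on MiSeq at 2 × 250 and filtered by CDR length. The clones had been stained with 10% biotinylated, detergent-solubilized Sf9 membrane reagent for 1 hour at 4 °C and sorted by FACS into low and high (top ~1%) gates on anti-HA and streptavidin fluorescence. Polyreactivity labels come from the gate of origin.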

| Sequence | polyreactivity (PSR sort gate) |
| --- | --- |
| QVQLVESGGGLVQAGGSLRLSCAASGSIFEDYTMGWYRQAPGKERELVAAIDWSDASTFYADSVKGRFTISRDNAKNTVYLQMSLKPEDTAVYYCNVAIIFYDDDYWGQGTLVTVSS | high polyreactivity |
| QVQLVESGGGLVQAGGSLRLSCAASGSIFEGNAMGWDRQAPGKERELVASISGDGSTNYADSVKGRFTISRDNAKITVYLQMNCLKPEDTAVYYCAASFRWYGTVRYPYEMYYWGQGTQVTVSS | low polyreactivity |
| QVQLVESGGGLVQAGGSLRLSCAASGSIFEGNAMGWYREAPGKERELVASISGDGSTNYADSVKGRFTISRDNAKNTVYLQMNSLKPEDTAVYYCNADTISEPGFHMDYWGQGTQVTVSS | low polyreactivity |
| QVQLVESGGGLVQAGGSLRLSCAASGSIFEGNGMGWNRQEPGNVRELVAAITFRSGSTYYADSVKGRFTISRDNAKNSVYLQMNSLKPEDTAVYYCAADEYYQVSAYDYWGQGTQVTVSS | low polyreactivity |
| QVQLVESGGGLVQAGGSLRLSCAASGSIFEGNGMGWYRQAPGQERELVAAITFRSGSTYYADSVKGRFTISRDNAKNTVYLQMNSLKPEDTAVYYCAADEYYQGYAYDYWGQGTPVTVSS | low polyreactivity |
| QVQLVESGGGLVQAGGSLRLSCAASGSIFEGYVMGWYRQAPGKERELVATISFSGGSTYYADSVKGRFTISRDNAKNTVYLQMNSLKPEDTAVYYSAAAGVYYGVRGTTYAYDYWGQGTQVTVSS | low polyreactivity |
| QVQLVESGGGLVQAGGSLRLSCAASGSIFEHYAMGWYRQAPGKERELVATISSASRTNYADSVKGRFTISRDNAKNTVYLQMNSLKPEDTAVYYCAARFYYVWYGPYYYWGQGTQVTVSS | high polyreactivity |
| QVQLVESGGGLVQAGGSLRLSCAASGSIFEQYAMGGSRPAPGKERELVAAISKRGTSTYYADSVKGRFTISRDTPKNTVYLNMNSLKPEDTAVYYCAATNRWYYRAAADVYAFGYWGQGTQVTVSS | high polyreactivity |
| QVQLVESGGGLVQAGGSLRLSCAASGSIFERNAMGWYRQAPGKERELVAAISDDDGSTYYADSVKGRFTISRDNAKNTVYLQMNSLKPEDTAVYYCNAYSHFGSFYPFDYWGQGTQVTVSS | low polyreactivity |
| QVQLVESGGGLVQAGGSLRLSCAASGSIFERYAMGWYRQAPGKERELVAAISWSGGRTYYADSVKGRFTISRDYAKNTFFLQMNSLNPEDTAVYYCARVVQPGSPIYDYWGQGTQVTVSS | high polyreactivity |
| QVQLVESGGGLVQAGGSLRLSCAASGSIFERYDMGWYRQAPGKERELVAAITSAGITYYADSVKGRFTISRDNAKNTVYLQMNSLKPEDTAVYYCAASYYYGYDYWGQGTQVTVSS | low polyreactivity |
| QVQLVESGGGLVQAGGSLRLSCAASGSIFERYTMGWYRQAPGKERELVAAISRSGGRTYYADSVKGRFTISRDNAKNTVYLQMNSLKPEDTAVYYCARTRVASKGYDYWGQGTQVTVSS | high polyreactivity |
| QVQLVESGGGLVQAGGSLRLSCAASGSIFESYAMGWYRQAPGKERELVAAIDYSGGSTYYADSVKGRFTISRDNAKNSVYLQMNSLKREDTAVYYCAAGYRTYYGYRYGYWGQGTQVTVSS | high polyreactivity |
| QVQLVESGGGLVQAGGSLRLSCAASGSIFESYAMGWYRQAPGKERELVAAITKRGGSTYYADSVKGRFTISRDNAKNTVYLQMNSLKPEDTAVYYCNARWPGIGPIYDYWGQGTQVTVSS | low polyreactivity |
| QVQLVESGGGLVQAGGSLRLSCAASGSIFESYVMGWYRQAPGKERELVAAISSGGSTYYADSVKGRFTISRDNAKNTVYLQMNSLKPEDTAVYYCAKRSHTYSVPGVYNEGDYWGQGTQVTVSS | low polyreactivity |
| QVQLVESGGGLVQAGGSLRLSCAASGSIFEVNAMGLYRQAPGKERELVAAISCSGGSTYYADSVKGRFTISRDNAKNTVYLQMNSLKPEDTAVYYCAADWRQGLWYGYYYWGQGTQVTVSS | low polyreactivity |
| QVQLVESGGGLVQAGGSLRLSCAASGSIFEWYAMGWYRQAPGKDRELVADITYNGGSTYYADSVKGRFTISRDNAKNTVYLQMNSLKPEDTAVYYCAADYFVQVPDYYYASEYGYWGQGTQGTVSS | low polyreactivity |
| QVQLVESGGGLVQAGGSLRLSCAASGSIFEYNDMGSYRQAPGKERELVAAITTGGRTSYADSVKGRFTISRDNAKYTVYLQMNSLKPEDTAVYYCNKDHSSYGASGYDYWGQGTQVTVSS | low polyreactivity |
| QVQLVESGGGLVQAGGSLRLSCAASGSIFEYNDMGWYRQAPGKERELVAAISWNGGSTYYADSVKGRFTISRDNAKNTVYLPMNSLKPEETAVYYCNTRYSPGYQGTEVDYWGQGTQVTVSS | low polyreactivity |
| QVQLVESGGGLVQAGGSLRLSCAASGSIFFGNAMGWYRQAPGKERELVAAISTTGGSTYYADSVKGRFTISRDNAKNTVYLQMNSLKPEDTAVYYCNADRATWWEQWWYDYWGQGTLVTVSS | low polyreactivity |
| QVQLVESGGGLVQAGGSLRLSCAASGSIFFGNAMGWYRQATGKERELVAAITRRGGSTYYADSVKGRFTISRDNAKNTVYLQMNSLKPEDTAVYYCNAVSKRYGYGYWGQGTQVTVSS | high polyreactivity |
| QVQLVESGGGLVQAGGSLRLSCAASGSIFFGYAMGSYRQAPGKERELVAAISTRGGSTYYADSVKGRFTISRDNAKNTFYLQMNSLKPEDTAVYYSAADYLDSTYGYVYGWDDYWGQGTQVTVSS | low polyreactivity |

| Sequence | polyreactivity (PSR sort gate) |
| --- | --- |
| QVQLVESGGGLVQAGGSLRLSCAASGSIFFGYAMGWYRQAPGKERELVAAISTRGGRTYYADSVKGRFTISRDNAKNTVYLQMNSLKPEDTAVYYCAAFQAHQTAFDYWGQGTQVTVSS | high polyreactivity |
| QVQLVESGGGLVQAGGSLRLSCAASGSIFFKYTMGWYRQAPGKEREFVAAISYSGGRTYYADSVKGRFTISRDNAKNTVYLQMNSLKPEDTSVYYCATRDEITHGDRMDYWGQGTQVTVSS | low polyreactivity |
| QVQLVESGGGLVQAGGSLRLSCAASGSIFFLYAMGWYRQATGKEREFVAAITGTADSTYYADSVKGRFTISRDDAKNTVYLQMNSLNPEDTAVYYCATDYWSSVKLDDYWGQGTQVTVSS | low polyreactivity |
| QVQLVESGGGLVQAGGSLRLSCAASGSIFFPNAMGWYRQAPGKERELVAAISWSGDSTYADSVKGRFTISRDNAKNTVYLQMNSLKPEETAVYSCAAVYLWWSYEFDYWGQGTHVTVSS | low polyreactivity |
| QVQLVESGGGLVQAGGSLRLSCAASGSIFFPYAMGWYRQAPGKERELVAAISQSAGSTFYADSVKGRFTISRDNAKHTVYLQKNSLKPEDTAVYYCAKSGDADFYYTYYYWGQGTQVTVSS | low polyreactivity |
| QVQLVESGGGLVQAGGSLRLSCAASGSIFFPYAMGWYRQATGKERELVASINSGGITTYADSVKGRFTISRDNAKNTVYLQMNSLKPEDTAVYYCARYVSYRWVRYNYWGQGTQVTVSS | high polyreactivity |
| QVQLVESGGGLVQAGGSLRLSCAASGSIFFPYLMGWYRQAPGKERELVAAITYRAGSTYYADSVKGRFTISRDNAKNTVYLQMNSLKPEDTAVYYCAAVVSRSGEFGYWGQGTQVTVSS | low polyreactivity |
| QVQLVESGGGLVQAGGSLRLSCAASGSIFFRYTMGWSRQAPGTERELVAAITGSGGSTYYADSVKGRFTISRDNAKNTVYLQMNSLKTEDTAVYYCARPGWGRYEYWGQGTQVTVSS | high polyreactivity |
| QVQLVESGGGLVQAGGSLRLSCAASGSIFFSNAMGWYRQAPGKERELVAAITSSGASTYYADSVKGRFTISRDNAKNTVYLQMNSLKPEDTAVYYCAVVGRGKRYGYWGQGTQVTVSS | high polyreactivity |
| QVQLVESGGGLVQAGGSLRLSCAASGSIFFSNAMGWYRQAPGKERELVAVITYSGGGTYYADSVKGRFTISRDNAKNTVYLQMNSLKPEDTAVYYCNTDLGPDGISWHWYAYDYWGQGTQVTVSS | low polyreactivity |
| QVQLVESGGGLVQAGGSLRLSCAASGSIFFSYAMGWYIQAPGKERELVAAITSSVDSTYYADSVKGRFTISRDNAKNTVYLQMNSLKPEDTAVYYCAARYRSGYYRYDYWGQGTQVTVSS | low polyreactivity |
| QVQLVESGGGLVQAGGSLRLSCAASGSIFFSYAMGWYRQAPGKERELVAAIDYSGGGTYYADSVKGRFTISRDNAKNTVYLQMNSLKPEDTAVYYCNSDTEVWAVTFISYRALNYWGQGTQVTVSS | low polyreactivity |
| QVQLVESGGGLVQAGGSLRLSCAASGSIFFSYAMGWYRQAPGKERELVASISSGVSTNYADSEKGRFTISRDNAKNTVYLQMNSLKPEDTAVYYFAAYYRGWSSSYWYPAYNYWGQGTQVTVSS | low polyreactivity |
| QVQLVESGGGLVQAGGSLRLSCAASGSIFFVNAMGWYRQAPGKERELVAGITGGGSTYYADSVKGRFTISRDNAKNTVYLQMNSLKPEDTAVYYCNKKAYRKTGMDYWGQGTQVTVSS | low polyreactivity |
| QVQLVESGGGLVQAGGSLRLSCAASGSIFFYNTMGWYRQAPGKERELVAAISASGGRTYYADSVKGRFTISRDNAKNTVYLQMNSLKPEDTAVYYCAVRVPYRGYTRYDYWGQGTQVTVSS | high polyreactivity |
| QVQLVESGGGLVQAGGSLRLSCAASGSIFFYYAMGWYRQAPGKERELVAAIRSGTSTNYADSVKGRFTISRDNAKNTVYLQMNSLKPEDTAVYYCAARFPGGGYGMDYWGQGTKVTVSS | low polyreactivity |
| QVQLVESGGGLVQAGGSLRLSCAASGSIFFYYAMGWYRQAPGKERELVAAITKIGVGTFYADSVKGRFTISRDNAKNTVYLQMNSLKPEDTAVYYCNARTAWEGYDYWGQGTQVTVSS | low polyreactivity |
| QVQLVESGGGLVQAGGSLRLSCAASGSIFFYYAMGWYRQAPGKERELVAAITSSGDSTYYADSVKGRFTISRDNAKNTVYLQMNSLKPEDTAVYYCAALYIGYTGYYYWGQGTQVSVSS | low polyreactivity |
| QVQLVESGGGLVQAGGSLRLSCAASGSIFFYYAMGWYRQAPGKERELVATINWSGGSTYYADSVKGRFTISRDNAKNTVYLQMNSLKPEDTAVYYCAAKDITLPGTMDSWGQGTQVTVSS | low polyreactivity |
| QVQLVESGGGLVQAGGSLRLSCAASGSIFFYYTMGWYRQAPGKERELVAAISDSGGSTYYADSVKGRFTISRDNAKNTVYLQMNSLKPEDTAVYYCAAADWFTVLESERVDYWGQGTQVTVSS | low polyreactivity |
| QVQLVESGGGLVQAGGSLRLSCAASGSIFFYYVMGWYRQAPGKERELVAVISSGGGSTYYADSVKGRFTISRDNAKNTVYLQMNSLKPEDTAVYYCAAGTYYKFYYWGQGTQVTVSS | high polyreactivity |

Source: the nanobody polyreactivity screen of Harvey et al. (2022)
